Measured values reported in patent US5453362, “Eukaryotic transcription protein; host cell factor” (Tularik Inc.).

Key:
[1] = biological target: VP16-induced complex: Oct-1 POU domain + GST-VP16 + partially purified human HCF (Homo sapiens / Herpes simplex virus, UniProt P14859;P06492;P51610 P14859:280-438,P06492:5-411,P51610:2-2035); test: EMSA; 50 mM KCl, pH 7.9, 1 mM EDTA, 30 C; complex disrupted by anti-HCF sera (FIG. 4, WGA fraction); settings: tags: GST on VP16; Oct-1 POU recombinant from E. coli, GST removed by thrombin; label: 32P end
[2] = biological target: GST-VP16 with insect extract, no Oct-1 POU (Herpes simplex virus, UniProt P06492 P06492:5-411); test: EMSA; no specific complex with SL2 or Sf9 extract without Oct-1 POU; settings: tags: GST; label: 32P end
Sequence of GST-VP16 with insect extract, no Oct-1 POU (P06492 5-411, one chain of several): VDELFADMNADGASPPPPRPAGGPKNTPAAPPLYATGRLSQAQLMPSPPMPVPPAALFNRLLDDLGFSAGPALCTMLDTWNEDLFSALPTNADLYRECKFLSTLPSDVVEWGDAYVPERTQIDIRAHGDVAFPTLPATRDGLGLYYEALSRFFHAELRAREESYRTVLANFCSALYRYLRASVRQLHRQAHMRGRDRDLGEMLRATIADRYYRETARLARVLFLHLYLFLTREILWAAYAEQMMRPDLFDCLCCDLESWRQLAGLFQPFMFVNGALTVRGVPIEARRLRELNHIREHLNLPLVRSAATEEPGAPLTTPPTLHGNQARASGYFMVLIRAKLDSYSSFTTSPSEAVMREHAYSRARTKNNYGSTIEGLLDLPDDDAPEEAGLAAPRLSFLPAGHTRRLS

Sequence of VP16-induced complex: Oct-1 POU domain + GST-VP16 + partially purified human HCF (P14859 280-438, chain 1 of 3): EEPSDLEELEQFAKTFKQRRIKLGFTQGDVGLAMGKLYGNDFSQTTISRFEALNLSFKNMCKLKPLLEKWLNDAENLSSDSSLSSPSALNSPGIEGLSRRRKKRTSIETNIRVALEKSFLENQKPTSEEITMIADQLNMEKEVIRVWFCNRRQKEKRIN
Sequence of VP16-induced complex: Oct-1 POU domain + GST-VP16 + partially purified human HCF (P06492 5-411, chain 2 of 3): as the sequence (P06492 5-411, one chain of several) above
Sequence of VP16-induced complex: Oct-1 POU domain + GST-VP16 + partially purified human HCF (P51610 2-2035, chain 3 of 3): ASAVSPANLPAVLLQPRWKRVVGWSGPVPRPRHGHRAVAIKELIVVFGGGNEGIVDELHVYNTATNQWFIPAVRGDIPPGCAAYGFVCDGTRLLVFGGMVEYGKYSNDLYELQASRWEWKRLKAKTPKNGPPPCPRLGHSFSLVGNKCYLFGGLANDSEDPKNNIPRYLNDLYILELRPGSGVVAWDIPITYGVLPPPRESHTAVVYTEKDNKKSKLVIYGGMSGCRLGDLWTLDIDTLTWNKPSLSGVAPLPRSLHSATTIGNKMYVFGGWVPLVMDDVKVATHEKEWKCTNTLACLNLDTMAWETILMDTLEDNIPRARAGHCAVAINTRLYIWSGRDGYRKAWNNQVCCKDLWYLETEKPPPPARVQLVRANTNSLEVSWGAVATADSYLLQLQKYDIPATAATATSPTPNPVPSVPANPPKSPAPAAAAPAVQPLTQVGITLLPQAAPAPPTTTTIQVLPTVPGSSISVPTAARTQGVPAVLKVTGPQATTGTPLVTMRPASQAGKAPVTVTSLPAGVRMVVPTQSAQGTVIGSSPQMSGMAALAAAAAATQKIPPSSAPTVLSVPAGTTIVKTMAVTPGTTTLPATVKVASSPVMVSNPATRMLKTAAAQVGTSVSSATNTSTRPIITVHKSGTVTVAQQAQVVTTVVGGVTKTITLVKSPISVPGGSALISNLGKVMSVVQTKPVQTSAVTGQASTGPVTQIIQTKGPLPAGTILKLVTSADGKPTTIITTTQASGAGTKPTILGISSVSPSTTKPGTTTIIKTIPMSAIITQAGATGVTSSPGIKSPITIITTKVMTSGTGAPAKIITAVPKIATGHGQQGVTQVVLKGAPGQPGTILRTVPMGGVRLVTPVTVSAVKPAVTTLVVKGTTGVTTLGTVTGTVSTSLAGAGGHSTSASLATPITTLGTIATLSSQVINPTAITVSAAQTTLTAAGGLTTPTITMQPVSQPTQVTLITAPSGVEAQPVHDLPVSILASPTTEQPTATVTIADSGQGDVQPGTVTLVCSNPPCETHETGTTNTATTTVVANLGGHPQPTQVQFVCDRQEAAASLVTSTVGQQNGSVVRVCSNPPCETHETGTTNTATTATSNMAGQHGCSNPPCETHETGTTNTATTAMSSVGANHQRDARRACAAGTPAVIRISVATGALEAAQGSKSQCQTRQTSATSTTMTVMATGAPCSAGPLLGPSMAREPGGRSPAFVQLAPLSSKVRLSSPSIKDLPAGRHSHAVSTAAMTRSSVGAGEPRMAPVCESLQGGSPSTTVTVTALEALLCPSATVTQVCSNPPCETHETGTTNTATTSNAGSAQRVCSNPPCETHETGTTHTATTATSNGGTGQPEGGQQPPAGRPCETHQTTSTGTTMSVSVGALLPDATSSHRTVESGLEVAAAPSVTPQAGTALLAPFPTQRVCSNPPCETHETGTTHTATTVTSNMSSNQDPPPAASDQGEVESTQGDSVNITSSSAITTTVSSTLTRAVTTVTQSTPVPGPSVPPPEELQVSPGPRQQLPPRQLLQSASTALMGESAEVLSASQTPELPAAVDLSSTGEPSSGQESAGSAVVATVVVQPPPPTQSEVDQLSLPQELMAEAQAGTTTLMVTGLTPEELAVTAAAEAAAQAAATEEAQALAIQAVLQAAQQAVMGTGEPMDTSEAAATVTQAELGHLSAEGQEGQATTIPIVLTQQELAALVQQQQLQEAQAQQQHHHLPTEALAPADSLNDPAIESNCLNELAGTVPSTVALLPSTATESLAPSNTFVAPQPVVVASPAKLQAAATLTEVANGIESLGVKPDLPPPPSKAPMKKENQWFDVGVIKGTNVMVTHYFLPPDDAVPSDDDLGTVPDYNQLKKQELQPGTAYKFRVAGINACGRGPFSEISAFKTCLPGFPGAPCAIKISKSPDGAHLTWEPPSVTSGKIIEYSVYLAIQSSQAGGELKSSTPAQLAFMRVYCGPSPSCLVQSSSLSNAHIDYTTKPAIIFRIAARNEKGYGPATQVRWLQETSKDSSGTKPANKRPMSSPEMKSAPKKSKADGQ

B1: (Octa+)… ICP0 IE element (dsDNA)
DNA 1: ATGCTAATGATAT
DNA 2: ATATCATTAGCAT
B1: binds [1]; no binding [2].
